Results as given in patent US20110165161A1, “ANTI-EPCAM ANTIBODIES THAT INDUCE APOPTOSIS OF CANCER CELLS AND METHODS USING SAME” (priority 2009, published 2011).
Marks after values point to notes of the source that are not given here.

Experiments:
NCI-H358 xenograft = assay: Lung cancer NCI-H358 xenograft in SCID mice; type: in vivo; conditions: for tumor volume Mean ± SD: 30 mg/kg i.p.
Procedure: (§1) Whether the in vitro apoptosis-inducing activity of anti-EpCAM antibodies has any in vivo biological relevance was studied in the xenograft model. […] 5×10^6 DLD-1 or 3×10^6 NCI-H358 cells were implanted subcutaneously into the hind flank region of SCID mice (6-7 weeks) on day 0. Treatment by intraperitoneal injection with antibodies at 12.5 mg/kg for DLD-1 or 30 mg/kg for NCI-H358 in 0.1 ml PBS started on day 1 after tumor-cell inoculation and was repeated at days 4, 8, 11, 15, 18, 22 and 25. As control, 9E10 (an mouse anti-myc antibody) at the same dose were used. Five or six mice were used in each group of the experiment. Tumor growth was assessed based on twice-weekly measurement of tumor volume (mm^3) by calipers and the tumor size was calculated using the formula: π/6×larger diameter×(smaller diameter)^2 (Kievit E, Cancer Research, 60:6649-55). Statistical analysis of tumor growth was performed using the Student's t-test.

[1] = test system: Breast cancer T-47D cells; assay: Antibody cytotoxicity assay (Annexin V + PI), T-47D; type: cell-based; conditions: 1, 3 and 10 μg/ml, overnight
Procedure: (§2) After a 17-20 hr incubation at 37° C., cells were stained with 0.3 μl of FITC-conjugated Annexin V (Strong Biotech Corp. Cat. No. AVK250) in 50 μl Annexin V binding buffer (Strong Biotech Corp. Cat. No. AVK250) at RT for 20 min. After wash, the cells were then stained with 0.3 μl of propidium iodide in 200 μl Annexin V binding buffer. Annexin V and Propidium Iodide were used as a joint indicator for cell death. The data were acquired with BD FACSCalibur based on an acquisition of 3,000-5,000 cells and analyzed with the Cell Quest software. The combined percentages of the Annexin V+/PI+, Annexin V+/PI− and Annexin V−/PI+populations were considered as dead cells.

[2] = test system: Lung cancer NCI-H520 cells; assay: Antibody cytotoxicity assay (Annexin V + PI), NCI-H520; type: cell-based; conditions: 1, 3 and 10 μg/ml, overnight
Procedure: as §2

DLD-1 xenograft = assay: Colorectal cancer DLD-1 xenograft in SCID mice; type: in vivo; conditions: for tumor volume Mean ± SD: 12.5 mg/kg i.p.
Procedure: as §1

[3] = test system: Gastric cancer NCI-N87 cells; assay: Antibody cytotoxicity assay (Annexin V + PI), NCI-N87; type: cell-based; conditions: 1, 3 and 10 μg/ml, overnight
Procedure: as §2

[4] = test system: Prostate cancer LNCaP cells; assay: Antibody cytotoxicity assay (Annexin V + PI), LNCaP; type: cell-based; conditions: 1, 3 and 10 μg/ml, overnight
Procedure: as §2

[5] = test system: Colorectal cancer DLD-1 cells; assay: Antibody cytotoxicity assay (Annexin V + PI), DLD-1; type: cell-based; conditions: 1, 3 and 10 μg/ml, overnight
Procedure: as §2

CHO parental cells = assay: FACS binding of anti-EpCAM antibodies to CHO parental cells; set-up: species or system Chinese hamster; conditions: antibody 0.1 μg/ml; HPS at 300x dilution
Procedure: 1×10^5 CHO/EpCAM or CHO parental cells were seeded in each well of a v-bottomed 96-well plate and incubated with purified anti-EpCAM antibodies or mouse IgG control antibody 9E10 at concentration of 0.1 μg/ml. A 300× dilution of human cell hyper-immune serum (HPS 300×) was used as binding positive control for both cell lines here. After 1 hr incubation at 4° C., cells were washed twice with 200 μl FACS buffer (1×PBS containing 1% FBS), stained with 100 μl of 1 μg/ml goat-anti-mouse IgG-PE (Southern Biotech, Cat. No. 1032-09) in FACS buffer and then incubated at 4° C. for 30 min. Cells were washed thrice with FACS buffer and analyzed by flow cytometry (BD LSR, BD Life Sciences).

[6] = test system: NCI-H358 lung cancer cells; assay: Cell death in NCI-H358 lung cancer cells (Annexin V + PI); type: cell-based, human; conditions: mean of 5 experiments; mAb 10 μg/ml; 17 hr
Procedure: (§3) 5×10^4 NCI-H358 cells were seeded to each well of a 96-well plate, and then 10 μg/ml of anti-EpCAM or control (9E10) mAbs diluted in the medium was added into the cells. After a 17-hr incubation at 37° C., the cells were stained with 0.3 μl of FITC-conjugated Annexin V (Strong Biotech Corp. Cat. No. AVK250) in 50 μl Annexin V binding buffer (Strong Biotech Corp. Cat. No. AVK250) at RT for 20 min. After wash, the cells were then stained with 0.3 μl of propidium iodide in 200 μl Annexin V binding buffer. Annexin V and Propidium Iodide were used as a joint indicator for measuring cell death. The data were acquired with BD FACSCalibur based on an acquisition of 3,000-5,000 cells and analyzed with the Cell Quest software. The combined percentages of the Annexin V+/PI+, Annexin V+/PI− and Annexin V−/PI+populations were considered as dead cells.

[7] = test system: Pharynx cancer FaDu cells; assay: Antibody cytotoxicity assay (Annexin V + PI), FaDu; type: cell-based; conditions: 1, 3 and 10 μg/ml, overnight
Procedure: as §2

[8] = test system: Ovarian cancer NIH:OVCAR-3 cells; assay: Antibody cytotoxicity assay (Annexin V + PI), NIH:OVCAR-3; type: cell-based; conditions: 1, 3 and 10 μg/ml, overnight
Procedure: as §2

[9] = test system: COLO 205 colon cancer cells; assay: Cytotoxicity of anti-EpCAM antibodies in combination with oxaliplatin in COLO 205; type: cell-based, human; conditions: 24 hr
Procedure: as §3, with “Oxaliplatin, combined with infusional administration of 2 other chemotherapy drugs, 5-fluorouracil/leucovorin (5-FU/LV), is now considered as one of the as first-line treatments for people with advanced carcinoma of the colon or rectum (André et al. (2004) N Engl J Med 350(23):2343-2351). To test the cytotoxicity of anti-EpCAM antibodies in the presence of oxaliplatin, 1×10^5 COLO 205 cells” for “5×10^4 NCI-H358 cells”, “then 0.03, 0.3 and 3” for “then 10”, “mAbs in combination with oxaliplatin at concentration of 0, 0.01, 0.1, and 1 μg/ml” for “mAbs”, “medium were” for “medium was”, “a 24-hr” for “a 17-hr”

B1: 12H8: murine anti-human EpCAM monoclonal antibody (IgG2a, K), hybridoma m342-12H8.3; VH SEQ ID NO:3, VL SEQ ID NO:5 (antibody, listed as Mus musculus, V domains shown)
VH: QIQLVQSGPELKKPGETVKISCKTSGYTFTDYSMHWVNQAPGKGLKWMGWINTETGEPTYTDDFKGRFAFSLETSASTAYLQINNLKNEDTATYFCARTAVYWGQGTTLTVSS
VL: DIQMTQSPSSLSASLGERVSLTCRASQEISGSLSWLQQKPDGTIKRLIYAASTLNSGVPKRFSGRRSGSDYSLTISSLESEDFVDYYCLQYSSYPWSFGGGTKLEIKR
NCI-H358 xenograft; d46
  tumor volume Mean ± SD: 325 ± 132* mm^3
NCI-H358 xenograft; d50
  tumor volume Mean ± SD: 475 ± 224* mm^3
NCI-H358 xenograft; d53
  tumor volume Mean ± SD: 597 ± 304* mm^3
NCI-H358 xenograft; d57
  tumor volume Mean ± SD: 656 ± 274* mm^3
NCI-H358 xenograft; d60
  tumor volume Mean ± SD: 680 ± 279* mm^3
NCI-H358 xenograft; d64
  tumor volume Mean ± SD: 859 ± 326* mm^3
NCI-H358 xenograft; d67
  tumor volume Mean ± SD: 1076 ± 464* mm^3
NCI-H358 xenograft; lung (NCI-H358) xenograft
  Inhibition of tumor growth (in words): efficiently inhibited
[1]
  Induction of cell death (in words): substantial cell death
[2]
  Induction of cell death (in words): substantial cell death
DLD-1 xenograft; colorectal (DLD-1) xenograft
  Inhibition of tumor growth (in words): efficiently inhibited
DLD-1 xenograft; d29
  tumor volume Mean ± SD: 296 ± 154* mm^3
DLD-1 xenograft; d32
  tumor volume Mean ± SD: 396 ± 156* mm^3
DLD-1 xenograft; d36
  tumor volume Mean ± SD: 521 ± 189* mm^3
DLD-1 xenograft; d39
  tumor volume Mean ± SD: 619 ± 232* mm^3
DLD-1 xenograft; d43
  tumor volume Mean ± SD: 727 ± 270* mm^3
DLD-1 xenograft; d46
  tumor volume Mean ± SD: 839 ± 292* mm^3
DLD-1 xenograft; d49
  tumor volume Mean ± SD: 898 ± 207* mm^3
[3]
  Induction of cell death (in words): substantial cell death
[4]
  Induction of cell death (in words): substantial cell death
[5]
  Induction of cell death (in words): substantial cell death
CHO parental cells
  Binding (FACS, Mean fluorescence intensity (MFI)) CHO: 5
[6]
  % of Annexin V + PI staining (untreated background subtracted), Mean ± SEM: 33.6 ± 2.1%
[7]
  Induction of cell death (in words): substantial cell death
[8]
  Induction of cell death (in words): substantial cell death
[9]; mAb 0.03 μg/ml + oxaliplatin 0.01 μg/ml
  % of Annexin V + PI staining (untreated background subtracted): 10%
[9]; mAb 0.03 μg/ml + oxaliplatin 0.1 μg/ml
  % of Annexin V + PI staining (untreated background subtracted): 9%
[9]; mAb 0.03 μg/ml + oxaliplatin 1 μg/ml
  % of Annexin V + PI staining (untreated background subtracted): 14%
[9]; mAb 0.03 μg/ml, oxaliplatin 0 μg/ml
  % of Annexin V + PI staining (untreated background subtracted): 9%
[9]; mAb 0.3 μg/ml + oxaliplatin 1 μg/ml
  % of Annexin V + PI staining (untreated background subtracted): 35%
[9]; mAb 0.3 μg/ml, oxaliplatin 0 μg/ml
  % of Annexin V + PI staining (untreated background subtracted): 20%
[9]; mAb 3 μg/ml + oxaliplatin 0.01 μg/ml
  % of Annexin V + PI staining (untreated background subtracted): 22%
[9]; mAb 3 μg/ml + oxaliplatin 0.1 μg/ml
  % of Annexin V + PI staining (untreated background subtracted): 26%
[9]; mAb 3 μg/ml + oxaliplatin 1 μg/ml
  % of Annexin V + PI staining (untreated background subtracted): 38%
[9]; mAb 3 μg/ml, oxaliplatin 0 μg/ml
  % of Annexin V + PI staining (untreated background subtracted): 17%
